Experiment: Dynamic light scattering
Assay type: physicochemical
Settings: PBS, 100 mM MgCl2; insulin 25 µM, dAb 1 mg/mL; Figure S2 and S3

Substance: insulin: human insulin obtained from R&D Systems; analyte of the assay
- aggregation under buffer conditions (DLS): No aggregation

— paper PMC7856282 (Nature biomedical engineering, 2020)
